Test results: publication PMC4815241 (Protein Science : A Publication of the Protein Society, 2015)

Tests used:
[1] = biological target: eIF4GII_(551–745)/eIF4E complex (human | murine) (UniProt O43432); assay: ITC
[2] = biological target: eIF4GII_(551–745)/eIF4E complex (human | murine) (UniProt O43432); assay: SEC-MALS

Chain of eIF4GII_(551–745)/eIF4E complex (human | murine) (O43432 551-745, chain 1 of 2): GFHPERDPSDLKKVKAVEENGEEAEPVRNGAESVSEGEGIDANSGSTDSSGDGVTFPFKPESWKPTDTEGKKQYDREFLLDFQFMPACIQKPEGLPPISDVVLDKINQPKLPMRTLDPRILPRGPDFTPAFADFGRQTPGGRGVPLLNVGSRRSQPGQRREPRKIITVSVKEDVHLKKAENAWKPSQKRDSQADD
Chain of eIF4GII_(551–745)/eIF4E complex (human | murine) (P63073 whole entry, chain 2 of 2, further chain): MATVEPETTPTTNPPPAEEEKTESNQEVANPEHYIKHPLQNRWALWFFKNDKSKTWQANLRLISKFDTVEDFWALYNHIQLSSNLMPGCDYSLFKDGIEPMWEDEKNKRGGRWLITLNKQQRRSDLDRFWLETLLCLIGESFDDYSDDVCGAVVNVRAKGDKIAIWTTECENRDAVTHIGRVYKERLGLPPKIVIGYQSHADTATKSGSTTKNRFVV

FMDV leader proteinase, shortened form, sLb^proC51A (FMDV residues 29–195) (enzyme)
Kd [1]: 0.033 µM | stoichiometry N [2]: 1
